Experiments:
[1] = tested on: iDCs differentiated from monocytes; assay: Microarray gene expression and g:Profiler pathway analysis of treated DCs; type: cell-based, human
Excerpt: OVA, nAFP, and tAFP-treated DC were lysed, and total mRNA was obtained for microarray (Affymetrix HG-U133A). DE genes were uploaded in g:Profiler in R Studio for pathway analysis and visualization (Raudvere, U. et al. g:Profiler: a web server for functional enrichment analysis and conversions of gene lists (2019 update). Nucleic Acids Res. 47, W191-W198 (2019)).

[2] = tested on: monocyte-derived dendritic cells (DCs); assay: SCENITH single-cell energetic metabolism profiling of treated DCs; type: cell-based, human; conditions: mDC HLA-DR+, CD206+, CD86+
Excerpt: (§1) DCs were differentiated in vitro similarly as previously described (Pardee, A. D., Shi, J. & Butterfield, L. H. Tumor-Derived α-Fetoprotein Impairs the Differentiation and T Cell Stimulatory Activity of Human Dendritic Cells. J Immunol. 193, 5723-5732 (2014)). In brief, cryopreserved PBMC were thawed and CD14*monocytes were magnetically labeled using CD14 MicroBeads (Miltenyi, Cat #130-050-201) and isolated by LS columns (Miltenyi, Cat #130-042-401) per the manufacturer instructions. Viable eluted cells were enumerated using trypan blue on a Nexcelom Cellometer Spectrum. To generate iDCs, monocytes were stimulated for 5 days in the presence of 800 IU/mL of rGM-CSF (Miltenyi, Cat #130-093-862) and 500 IU/mL of rIL-4 (Miltenyi, Cat #130-095-373) as well as OVA, nAFP, or tAFP in CellGenix® GMP DC media (Cat #20801-0500) 37° C. at 5% CO2. Lastly, we performed an additional 24-hour stimulation with 1000 IU/mL of rIFN-γ (Peprotech, Cat #300-02) and 250 ng/mL of LPS (Sigma Aldrich, Cat #L2630-10MG) to produce mDCs. To harvest cells, DC were detached using TrypLE™ Select (Gibco, Cat #12563011) for 15 minutes at 37° C. and then washed several times with cold PBS.
(§2) SCENITH was performed as described in (Arguello et al., 2020). SCENITH™ reagents kit (inhibitors, puromycin and antibodies) were obtained from www.scenith.com/try-it and used according to the provided protocol for in-vitro derived myeloid cells. Briefly, control and tol-moDC cultures at desired timepoints, were treated for 18 minutes with Control (DMSO), 2-Deoxy-Glucose (2-DG; 100 mM), Oligomycin (0; 1 μM), a combination of 2DG and Oligomycin (DGO) or Harringtonine (H; 2 μg/mL). Following metabolic inhibitors, Puromycin (final concentration 10 μg/mL) was added to cultures for 17 min. After puromycin treatment, cells were detached from wells using TypLE Select (Fisher Scientific, 505914419), washed in cold PBS and stained with a combination of Human TureStain FcX (Biolegend, 422301) and fluorescent cell viability dye (Biolegend, 423105) for 10 min 4° C. in PBS. Following PBS wash step, primary antibodies against surface markers were incubated for 25 min at 4° C. in Brilliant Stain Buffer (BD Biosciences, 563794). Next cells were fixed and permeabilized using True-Nuclear Transcription Factor Buffer Set (Biolegend, 424401) as per manufacturer instructions. Intracellular staining of puromycin and protein targets was performed for 1 h in diluted (10×) permeabilization buffer at 4° C. Finally, data acquisition was performed using the Cytek Aurora flow cytometer. Primary conjugated antibody information used in SCENITH panel is listed in supplementary table 1. All antibodies were titrated to reduce spillover and increase resolution using single stained moDC (generated as described above) samples. Unstained cell controls used for autofluorescence extraction were generated for each time point, culture conditions (control, vitd3-tol-moDC and dexa-vitd3-tol-moDC) and metabolic inhibitor treatments (C, 2DG, O, DGO). Samples were unmixed using reference controls generated in combination with stained Ultracomp beads (Fisher Scientific, 01-2222-41) and stained cells using the SpectroFlo Software v2.2.0.1. The unmixed FCS files were used for data processing and analysis using FlowJo (BD, version 10.7.1). Manually gated CD14-HLA-DR*CD86+ cells were used for downstream analysis. gMFI expression values were imported into R environment for correlation and heatmap analysis using the below described R packages.

iDCs = assay: Intracellular Zn measurement by flow cytometry; type: cell-based, human; conditions: P=0.0293 vs nAFP, P=0.0228 vs OVA
Procedure: Intracellular Zn was quantified by flow cytometry using the Zinc Assay Kit (Cell-based) (Abcam, Cat #ab241014). Monocytes were differentiated to iDCs as described above in the presence of OVA, nAFP, tAFP, or ZnSO4. […] Cells were stained with LD Aqua for 10 minutes at RT. Cells were washed in 1× Assay Buffer, then stained in 100 μL of Assay Buffer+0.2 μL of Zn Probe for 30 minutes at 37° C. Cells were then washed twice with 1× Assay buffer then stained with HLA-DR-APC-H7 (BD, Clone: GF6-6, Cat #561358, Lot #0023290, 0339025), CD86-BV785 (BioLegend, Clone: IT2.2, Cat #305441, Lot #B277560), CD206 PE-Cy7 (Biolegend, Clone: 15-2, Cat #321123, Lot #B331254), and CD14-BUV805 (BD, Clone: M5E2, Cat #612903, Lot #0297714), in Brilliant Stain Buffer (BD Horizon, Cat #566349, Lot #0121427) for 20 minutes at 4° C. Cells were washed twice in FACS Buffer and fixed in 1% paraformaldehyde (Thermo Scientific, Cat #J19943-K2, Lot #195273, diluted in PBS) for at least 30 minutes before acquisition on a BD LSRFortessam X-50.

dendritic cells (DCs) = conditions: tAFP-treated DCs; cited from earlier work
[3] = tested on: monocyte-derived dendritic cells (DCs); assay: Glucose and lactate measurements in DC cultures; type: cell-based, human
Excerpt: as §1
Glucose and lactate were measured by applying approximately 5 μL of supernatant to Clarity BG1000 Blood Glucose strips (Cat #75840-798) and meter (Cat #75840-800) system or the Lactate Plus strips (Nova Biomedical©, Cat #40813) and meter version 2 (Nova Biomedical©, Cat #62624) system. Each meter was quality checked with control glucose and lactate solutions and CellGenix™ media before each experiment.

mDCs generated in vitro = assay: scMEP single-cell metabolic regulome profiling by CyTOF; type: cell-based, human
Procedure: scMEP analysis was performed as recently described (Hartmann et al., 2021). In short, antibodies targeting metabolic features were conjugated in-house using an optimized conjugation protocol (Hartmann et al., 2019) and validated on multiple sample types. Cells were prepared for scMEP analysis by incubation with small molecules to be able to assess biosynthesis rates of DNA, RNA and protein, cisplatin-based live/dead staining, PFA-based cell fixation and cryopreservation (dx.doi.org/10.17504/protocols.io.bkwkkxcw). Next, cells were stained with metabolic antibodies in a procedure that includes surface staining for 30 min at RT, PFA-fixation for 10 min at RT, MeOH-based permeabilization for 10 min on ice, intracellular staining for 1 h at RT and DNA intercalation (dx.doi.org/10.17504/protocols.io.bntnmeme). Finally, cells were acquired on a CyTOF2 mass cytometer (Fluidigm). Protein targets and antibody information used in scMEP are listed in supplementary table 2. Raw mass spectrometry data were pre-processed, de-barcoded and imported into R environment using the flowCore package (version 2.0.1) (Hahne et al., 2009). Values were arcsin h transformed (cofactor 5) and normalized (Hartmann et al., 2021) for downstream analyses based on previously reported workflow (Nowicka et al., 2017).

[4] = tested on: monocyte-derived dendritic cells (DCs); assay: Flow cytometry phenotype of in vitro differentiated DCs treated with OVA, nAFP or tAFP; type: cell-based, human
Excerpt: as §1, §2

B1: tAFP: tumor-derived alpha fetoprotein, SEQ ID NO: 1; commercially available (Bio-Rad) (protein, listed as Homo sapiens)
chain: MKWVESIFLIFLLNFTESRTLHRNEYGIASILDSYQCTAEISLADLATIFFAQFVQEATYKEVSKMVKDALTAIEKPTGDEQSSGCLENQLPAFLEELCHEKEILEKYGHSDCCSQSEEGRHNCFLAHKKPTPASIPLFQVPEPVTSCEAYEEDRETFMNKFIYEIARRHPFLYAPTILLWAARYDKIIPSCCKAENAVECFQTKAATVTKELRESSLLNQHACAVMKNFGTRTFQAITVTKLSQKFTKVNFTEIQKLVLDVAHVHEHCCRGDVLDCLQDGEKIMSYICSQQDTLSNKITECCKLTTLERGQCIIHAENDEKPEGLSPNLNRFLGDRDFNQFSSGEKNIFLASFVHEYSRRHPQLAVSVILRVAKGYQELLEKCFQTENPLECQDKGEEELQKYIQESQALAKRSCGLFQKLGEYYLQNAFLVAYTKKAPQLTSSELMAITRKMAATAATCCQLSEDKLLACGEGAADIIIGHLCIRHEMTPVNPGVGQCCTSSYANRRPCFSSLVVDETYVPPAFSDDKFIFHKDLCQAQGVALQTMKQEFLINLVKQKPQITEEQLEAVIADFSGLLEKCCQGQEQEVCFAEEGQKLISKTRAALGV
[1]
  ACS gene: did not reach statistical significance
  SLC2A3 (GLUT3) gene expression: increase
  gene expression of CPT1A: increased
  genes involved in fatty acid metabolism (PDH, ACLY, ACC, FASN, LPL, CD36, CACT): downregulation
[1]; tAFP compared to nAFP
  pathways associated with lipid metabolism: significantly downregulated
  upregulated gene pathways: stress response to metal ions, particularly zinc
[2]
  fatty acid and glutaminolysis (FAAO) (SCENITH): reduction
  glycolysis (SCENITH): dramatic increase
  mitochondrial dependency (SCENITH): reduction
iDCs
  increase in Zn MFI compared to nAFP or OVA-treated iDCs: ~30%
Dendritic cells (DCs)
  mitochondrial mass: decreased
[3]
  intracellular glucose: increase
[3]; DC
  glucose uptake: take up more glucose
[3]; day 6
  glucose in the culture supernatants: significantly less
[3]; media of treated DCs, all HDs
  lactate secreted, relative to OVA-treated DCs: approximately twice
mDCs generated in vitro
  ASCT2: unchanged
  ETC/TCA parameters ATP5A, CS and SDHA: lower
  GLS: tended to be lower
  amino acid pathway proteins CD98 and G6PD: significantly decreased
  expression of DC markers CD206, PD-L1, CD11b, CD1c, HLA-DR, CD86 and CD11c: reduced expression
  glycolysis proteins (GLUT1, GLUT3, LDHA, ENO1, GAPDH, and MTC1): modest differences that were not statistically significant
  levels of cytochrome C (CytC): elevated
mDCs generated in vitro; mDCs
  FAO or FAS proteins CD36, CDPT1A, HADHA, and ACLY: decreased
[4]
  expression of pAMPK: decreased expression
  expression of the fatty acid transporter CD36: decline
[4]; Boolean analysis
  co-expression of multiple activation markers (HLA-DR, CD206, CD86, ICOSLG/CD275): decreased co-expression
[4]; tAFP-treated DC
  DC CD86 expression: trend for reduced
  DC CD206 expression: limited
  DC HLA-DR expression: limited

— patent US20260166115A1, “POLYUNSATURATED FATTY ACID-BOUND ALPHA FETOPROTEIN PROMOTES IMMUNE SUPPRESSION BY ALTERING HUMAN DENDRITIC CELL METABOLISM” (The Regents of the University of California, priority 2022, published 2026)
